Experimental findings from PMC6265900 are described below.

For one assay, the target named is plasma kallikrein. Kind of assay: enzyme inhibition with chromogenic substrate (Dixon plot); enzyme (FXIIa 10 nM, plasma kallikrein 80 nM, trypsin 800 nM, elastase 400 nM) incubated with 0.5, 1 and 2 uM native poecistasin in 60 uL of 50 mM Tris buffer pH 7.4 for 5 min, then 0.2 mM chromogenic substrate; absorbance at 405 nm for 10 min; Ki from Dixon plot.
For another assay, the target named is factor XIIa. The description is as above.

As to native poecistasin (natural protein), the figures for the inhibitory constant (Ki) in the assay with plasma kallikrein and in the assay with factor XIIa were 0.052 µM and 0.00931 µM, respectively.
